Here are results for 64 variants from the RNAGym collection of RNA variant scans (doi:10.7554/elife.80360).

Sequences and labels used below:
B1: HDV Ribozyme (parent)
chain: GGCCGGCAUGGUCCCAGCCUCCUCGCUGGCGCCGGCUGGGCAACAUUCCGAGGGGACCGUCCCCUCGGUAAUGGCGAAUGGGACCCA

This data set covers variants of B1. Briefly: self-cleavage, relative activity (ratio to wild type); higher = more cleavage; co-transcriptional.
Take GGCCGGCAUGGUCCCAGCCUCCUCUCUGGCGCCGGCUGGGCAACAUUCCGAGGGGACCGUCCCCUCGGUAAUGGCGAAUAGGACCCA: the self-cleavage was 0.117.

With GGCCGGCAUGGUCCCAGCCUCCUCUCUGGCGCCGGCUGGGCAACAUUCCGAGGGGACCGUCCCCUCUGUAAUGGCGAAUGGGACCCA, the self-cleavage is 0.305.

As to GGCCGGCAUGGUCCCAGCCUCCUCGAUGGCGCCGGAUGGGCAACAUUCCGAGGGGACCGUCCCCUCGGUAAUGGCGAAUGGGACCCA, the self-cleavage turned out to be 0.143.

With GGCCGGCAUGGUCCCAGCCUCCUCGAUGGCGCCGGCUGGGCAACAUUCCGAGGGGACCGUCCCCUCGGUAAUGGCGUAUGGGACCCA, the self-cleavage stood at 0.597.

With GGCCGGCAUGGUCCCAGCCUCCUCGAUGGCGCCGGCUGGGCAACAUUCCGAGGGGACCGUCCCCUCGGUAAUGGCGCAUGGGACCCA, the self-cleavage amounted to 0.266.

Turning to GGCCGGCAUGGUCCCAGCCUCCUCGAUGGCGCCGGCUGGGCAUCAUUCCGAGGGGACCGUCCCCUCGGUAAUGGCGAAUGGGACCCA, the self-cleavage is 0.527.

For the variant GGCCGGCAUGGUCCCAGCCUCCUCUCUGGCGCCGGCUGGGCAACAAUCCGAGGGGACCGUCCCCUCGGUAAUGGCGAAUGGGACCCA, the self-cleavage worked out at 0.0852.

GGCCGGCAUGGUCCCAGCCUCCUCUCUGGCGCCGGCUGGGCAACAGUCCGAGGGGACCGUCCCCUCGGUAAUGGCGAAUGGGACCCA: the self-cleavage stood at 0.199.

Take GGCCGGCAUGGUCCCAGCCUCCUCUCUGGCGCCGGCUGGGCAACACUCCGAGGGGACCGUCCCCUCGGUAAUGGCGAAUGGGACCCA: the self-cleavage turned out to be 0.

As for GGCCGGCAUGGUCCCAGCCUCCUCUCUGGCGCCGGCUGGGCAACAUACCGAGGGGACCGUCCCCUCGGUAAUGGCGAAUGGGACCCA, the self-cleavage was found to be 0.161.

Regarding GGCCGGCAUGGUCCCAGCCUCCUCUCUGGCGCCGGCUGGGCAACAUCCCGAGGGGACCGUCCCCUCGGUAAUGGCGAAUGGGACCCA, the self-cleavage was determined as 0.

As to GGCCGGCAUGGUCCCAGCCUCCUCUCUGGCGCCGGCUGGGCAACAUUCCUAGGGGACCGUCCCCUCGGUAAUGGCGAAUGGGACCCA, the self-cleavage came to 0.0361.

GGCCGGCAUGGUCCCAGCCUCCUCUCUGGCGCCGGCUGAGCAACAUUCCGAGGGGACCGUCCCCUCGGUAAUGGCGAAUGGGACCCA: the self-cleavage amounted to 0.0963.

As for GGCCGGCAUGGUCCCAGCCUCCUCUCUGGCGCCGGCUGCGCAACAUUCCGAGGGGACCGUCCCCUCGGUAAUGGCGAAUGGGACCCA, the self-cleavage was 0.0773.

GGCCGGCAUGGUCCCAGCCUCCUCUCUGGCGCCGGCUGUGCAACAUUCCGAGGGGACCGUCCCCUCGGUAAUGGCGAAUGGGACCCA: the self-cleavage is 0.0302.

Take GGCCGGCAUGGUCCCAGCCUCCUCGAUGGCGUCGGCUGGGCAACAUUCCGAGGGGACCGUCCCCUCGGUAAUGGCGAAUGGGACCCA: the self-cleavage amounted to 0.816.

Consider GGCCGGCAUGGUCCCAGCCUCCUCGAUGGCGACGGCUGGGCAACAUUCCGAGGGGACCGUCCCCUCGGUAAUGGCGAAUGGGACCCA, for which the self-cleavage is 0.216.

On to GGCCGGCAUGGUCCCAGCCUCCUCUCUGGCGCCGGCUGGGCAACAUUCCGAGGGGACCGUCCCCUCGGUAAUGGCGAAUGGAACCCA, for which the self-cleavage was determined as 0.0678.

On to GGCCGGCAUGGUCCCAGCCUCCUCUCUGGCGCCGGCUGGGCAACAUUCCGAGGGGACCGUCCCCUCGGUAAUGGCGAAUGGCACCCA, for which the self-cleavage was 0.0755.

Consider GGCCGGCAUGGUCCCAGCCUCCUCUCUGGCGCCGGCCGGGCAACAUUCCGAGGGGACCGUCCCCUCGGUAAUGGCGAAUGGGACCCA, for which the self-cleavage was 0.17.

As for GGCCGGCAUGGUCCCAGCCUCCUCUCUGGCGCCGGCGGGGCAACAUUCCGAGGGGACCGUCCCCUCGGUAAUGGCGAAUGGGACCCA, the self-cleavage was determined as 0.0489.

Regarding GGCCGGCAUGGUCCCAGCCUCCUCUCUGGCGCCGGCUGGGCAACAUUCCGAGGGGACCGUCCCCUCGGUAAUGUCGAAUGGGACCCA, the self-cleavage is 0.0268.

Turning to GGCCGGCAUGGUCCCAGCCUCCUCUCUGGCGCCGGCUGGGCAACAUUCCGAGGGGACCGUCCCCUCGGUAAUGACGAAUGGGACCCA, the self-cleavage is 0.0707.

For the variant GGCCGGCAUGGUCCCAGCCUCCUCUCUGGCGCCGGCUGGGCAACAUUCCGAGGGGACCGUCCCCUCGGUAAUGCCGAAUGGGACCCA, the self-cleavage was 0.0308.

Turning to GGCCGGCAUGGUCCCAGCCUCCUCUCUGGCGCCGGCUGGGCAACAUUCCGAGGGGACCGUCCCCCCGGUAAUGGCGAAUGGGACCCA, the self-cleavage stood at 0.237.

GGCCGGCAUGGUCCCAGCCUCCUCUCUGGCGCCGGCUGGGCAACAUUCCGAGGGGACCGUCCCCACGGUAAUGGCGAAUGGGACCCA: the self-cleavage came out at 0.

For the variant GGCCGGCAUGGUCCCAGCCUCCUCUCCGGCGCCGGCUGGGCAACAUUCCGAGGGGACCGUCCCCUCGGUAAUGGCGAAUGGGACCCA, the self-cleavage came to 0.107.

In the case of GGCCGGCAUGGUCCCAGCCUCCUCGAUGGGGCCGGCUGGGCAACAUUCCGAGGGGACCGUCCCCUCGGUAAUGGCGAAUGGGACCCA, the self-cleavage came out at 0.17.

For the variant GGCCGGCAUGGUCCCAGCCUCCUCUCUGGCGCCGGCUGGGCAACAUUCCGAGGGCACCGUCCCCUCGGUAAUGGCGAAUGGGACCCA, the self-cleavage was found to be 0.228.

For GGCCGGCAUGGUCCCAGCCUCCUCGAUGGCGCCGGCUGGGCAACAUUCCGUGGGGACCGUCCCCUCGGUAAUGGCGAAUGGGACCCA, the self-cleavage is 1.08.

For the variant GGCCGGCAUGGUCCCAGCCUCCUCGAUGGCGCCGGCUGGGCAACAUUCCGCGGGGACCGUCCCCUCGGUAAUGGCGAAUGGGACCCA, the self-cleavage turned out to be 1.13.

As for GGCCGGCAUGGUCCCAGCCUCCUCGAUGGCGCCGGCUGGGCAACAUUCAGAGGGGACCGUCCCCUCGGUAAUGGCGAAUGGGACCCA, the self-cleavage is 1.11.

Take GGCCGGCAUGGUCCCAGCCUCCUCUCUGGCGCCGGCUUGGCAACAUUCCGAGGGGACCGUCCCCUCGGUAAUGGCGAAUGGGACCCA: the self-cleavage came out at 0.134.

As to GGCCGGCAUGGUCCCAGCCUCCUCUCUGGCGCCGGCUGGGCAACAUUCCGAGGGGACCGUCCCCUCGGUAAUGGCGAAGGGGACCCA, the self-cleavage was determined as 0.0426.

Turning to GGCCGGCAUGGUCCCAGCCUCCUCUCUGGCGCCGGCUGGGCAACAUUCCGAGGGGACCGUCCCCUCGGUAAUGGCGAAUGCGACCCA, the self-cleavage is 0.0923.

With GGCCGGCAUGGUCCCAGCCUCCUCUCUGGCGCCGGCUGGGCAACAUUCCGAGGGGACCGUCCCCUCGGUAAUGGCGAAUGAGACCCA, the self-cleavage came out at 0.124.

In the case of GGCCGGCAUGGUCCCAGCCUCCUCUCUGGCGCCGGCUGGACAACAUUCCGAGGGGACCGUCCCCUCGGUAAUGGCGAAUGGGACCCA, the self-cleavage is 0.111.

In the case of GGCCGGCAUGGUCCCAGCCUCCUCGAUGGCGCCGGCUGGGCAACAUUUCGAGGGGACCGUCCCCUCGGUAAUGGCGAAUGGGACCCA, the self-cleavage stood at 0.941.

On to GGCCGGCAUGGUCCCAGCCUCCUCUCUGGCGCCGGCUGGGCAACAUUCCGAGGAGACCGUCCCCUCGGUAAUGGCGAAUGGGACCCA, for which the self-cleavage came out at 0.086.

With GGCCGGCAUGGUCCCAGCCUCCUCGAUGGCGCCGGCUGGGCAACAUUCCGAGGGGAGCGUCCCCUCGGUAAUGGCGAAUGGGACCCA, the self-cleavage was 1.1.

With GGCCGGCAUGGUCCCAGCCUCCUCGAUGGCGCCGGCUGGGCAACAUUCCGAGGGGAACGUCCCCUCGGUAAUGGCGAAUGGGACCCA, the self-cleavage was 1.02.

In the case of GGCCGGCAUGGUCCCAGCCUCCUCGAUGGCGCUGGCUGGGCAACAUUCCGAGGGGACCGUCCCCUCGGUAAUGGCGAAUGGGACCCA, the self-cleavage stood at 0.796.

As for GGCCGGCAUGGUCCCAGCCUCCUCGAUGGCGCAGGCUGGGCAACAUUCCGAGGGGACCGUCCCCUCGGUAAUGGCGAAUGGGACCCA, the self-cleavage is 0.161.

Turning to GGCCGGCAUGGUCCCAGCCUCCUCGAUGGCGCGGGCUGGGCAACAUUCCGAGGGGACCGUCCCCUCGGUAAUGGCGAAUGGGACCCA, the self-cleavage was determined as 0.317.

As to GGCCGGCAUGGUCCCAGCCUCCUCGAUGGCGCCGGCUGGGCCACAUUCCGAGGGGACCGUCCCCUCGGUAAUGGCGAAUGGGACCCA, the self-cleavage was determined as 0.227.

Consider GGCCGGCAUGGUCCCAGCCUCCUCGAUGGCGCCGGCUGGGCGACAUUCCGAGGGGACCGUCCCCUCGGUAAUGGCGAAUGGGACCCA, for which the self-cleavage was 0.665.

For GGCCGGCAUGGUCCCAGCCUCCUCGAUGGCGCCGGCUGGGCAAUAUUCCGAGGGGACCGUCCCCUCGGUAAUGGCGAAUGGGACCCA, the self-cleavage came to 0.95.

GGCCGGCAUGGUCCCAGCCUCCUCGAUGGCGCCGGCUGGGCAAAAUUCCGAGGGGACCGUCCCCUCGGUAAUGGCGAAUGGGACCCA: the self-cleavage was 0.914.

Consider GGCCGGCAUGGUCCCAGCCUCCUCUCUGGCGCCGGCUGGGCAACAUUCCGAAGGGACCGUCCCCUCGGUAAUGGCGAAUGGGACCCA, for which the self-cleavage was found to be 0.166.

With GGCCGGCAUGGUCCCAGCCUCCUCUCUGGCGCCGGCUGGGCAACAUUCCGAUGGGACCGUCCCCUCGGUAAUGGCGAAUGGGACCCA, the self-cleavage was determined as 0.234.

In the case of GGCCGGCAUGGUCCCAGCCUCCUCGAUGGCGCCGGCUGGGCAACAUUCCGAGGGGACCGUCCCCUCGGUAUUGGCGAAUGGGACCCA, the self-cleavage was 0.785.

Consider GGCCGGCAUGGUCCCAGCCUCCUCGAUGGCGCCGGCUGGGCAACAUUCCGAGGGGACCGUCCCCUCGGUAAUGGCGAAUGGGCCCCA, for which the self-cleavage is 0.752.

As for GGCCGGCAUGGUCCCAGCCUCCUCGAUGGCGCCGGCUGGGCAACAUUCCGAGGGGACCGUCCCCUCGGUAAUGGCGAAUGGGGCCCA, the self-cleavage was 0.729.

On to GGCCGGCAUGGUCCCAGCCUCCUCGAUGGCGCCGGCUGGGCAACAUUCCGAGGGGACCGUCCCCUCGGUAAUGGCGAAUGGGUCCCA, for which the self-cleavage is 0.796.

As to GGCCGGCAUGGUCCCAGCCUCCUCGAUGGCGCCGGCUGGGCAACAUUCCGAGGGGACCGUCCCCUCGGUAAUGGCGAUUGGGACCCA, the self-cleavage came out at 0.269.

Consider GGCCGGCAUGGUCCCAGCCUCCUCGAUGGCGCCGGCUGGGCAACAUUCCGAGGGGACCGUCCCCUCGGUUAUGGCGAAUGGGACCCA, for which the self-cleavage was found to be 1.23.

On to GGCCGGCAUGGUCCCAGCCUCCUCGAUGGCGCCGGCUGGGCAACAUUCCGAGGGGCCCGUCCCCUCGGUAAUGGCGAAUGGGACCCA, for which the self-cleavage was determined as 1.06.

With GGCCGGCAUGGUCCCAGCCUCCUCGAUGGCGCCGGCUGGGCAACAUUCCGAGGGGGCCGUCCCCUCGGUAAUGGCGAAUGGGACCCA, the self-cleavage was determined as 0.957.

On to GGCCGGCAUGGUCCCAGCCUCCUCGAUGGCGCCGGCUGGGAAACAUUCCGAGGGGACCGUCCCCUCGGUAAUGGCGAAUGGGACCCA, for which the self-cleavage was 1.17.

For the variant GGCCGGCAUGGUCCCAGCCUCCUCUCUGGCGCCGGCUGGGCAACAUUCCGAGGGGACCGUCCCCUCGCUAAUGGCGAAUGGGACCCA, the self-cleavage is 0.0791.

Regarding GGCCGGCAUGGUCCCAGCCUCCUCUCUGGCGCCGGCUGGGCAACAUUCCGAGGGGACCGUCCCCUCGUUAAUGGCGAAUGGGACCCA, the self-cleavage was 0.225.

Take GGCCGGCAUGGUCCCAGCCUCCUCUCUGGCGCCGGCUGGGCAACAUUCCGAGUGGACCGUCCCCUCGGUAAUGGCGAAUGGGACCCA: the self-cleavage amounted to 0.145.

For GGCCGGCAUGGUCCCAGCCUCCUCGAUGGCGCCGGCUGGGCAACAUUCCGAGGGGACCGUCCCCUCGGUAAUGGCGAAUGGGACCCC, the self-cleavage came out at 0.944.

As to GGCCGGCAUGGUCCCAGCCUCCUCGAUGGCGCCGGCUGGGCAACAUUCCGAGGGGACCGUCCCCUCGGUAAUGGCGAAUGGGACCCG, the self-cleavage worked out at 0.864.
